Source: publication PMC10397247
Read-outs that look alike come from different tables or passages of the source. Values belong to the binder of their own block, whether it stands above or below them.

Key:
P2bHq = target: T1, P2bHq; experiment: two-hybrid library CCNG1;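 further: natural log of median RNA to DNA barcode read ratio; higher means stronger binding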
T1 chain: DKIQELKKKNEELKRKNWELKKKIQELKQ

4H3926-bA = target: T2, 4H3926-bA; experiment: two-hybrid library CCNG1;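 further: natural log of median RNA to DNA barcode read ratio; higher means stronger binding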
T2 chain: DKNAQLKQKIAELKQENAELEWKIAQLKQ

4H348-bA = target: T3, 4H348-bA; experiment: two-hybrid library CCNG1;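 further: natural log of median RNA to DNA barcode read ratio; higher means stronger binding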
T3 chain: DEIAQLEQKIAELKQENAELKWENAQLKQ

4H3497-bA = target: T4, 4H3497-bA; experiment: two-hybrid library CCNG1;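 further: natural log of median RNA to DNA barcode read ratio; higher means stronger binding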
T4 chain: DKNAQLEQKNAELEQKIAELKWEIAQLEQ

4H626-bA = target: T5, 4H626-bA; experiment: two-hybrid library CCNG1
T5 chain: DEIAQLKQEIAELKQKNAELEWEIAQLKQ

4H3628-bA = target: T6, 4H3628-bA; experiment: two-hybrid library CCNG1
T6 chain: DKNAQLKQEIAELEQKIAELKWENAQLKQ

4H906-bA = target: T7, 4H906-bA; experiment: two-hybrid library CCNG1
T7 chain: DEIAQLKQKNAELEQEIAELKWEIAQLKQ

4H3298-bA = target: T8, 4H3298-bA; experiment: two-hybrid library CCNG1
T8 chain: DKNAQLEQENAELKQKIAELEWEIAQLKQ

4H3162-bA = target: T9, 4H3162-bA; experiment: two-hybrid library CCNG1
T9 chain: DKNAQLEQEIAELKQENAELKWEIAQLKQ

4H3462-bA = target: T10, 4H3462-bA; experiment: two-hybrid library CCNG1
T10 chain: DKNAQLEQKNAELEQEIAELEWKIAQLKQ

4H3613-bA = target: T11, 4H3613-bA; experiment: two-hybrid library CCNG1
T11 chain: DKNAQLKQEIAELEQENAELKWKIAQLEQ

4H3175-bA = target: T12, 4H3175-bA; experiment: two-hybrid library CCNG1
T12 chain: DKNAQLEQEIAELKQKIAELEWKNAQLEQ

4H3277-bA = target: T13, 4H3277-bA; experiment: two-hybrid library CCNG1
T13 chain: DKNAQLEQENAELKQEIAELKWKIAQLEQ

4H3631-bA = target: T14, 4H3631-bA; experiment: two-hybrid library CCNG1
T14 chain: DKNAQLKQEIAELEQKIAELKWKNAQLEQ

4H591-bA = target: T15, 4H591-bA; experiment: two-hybrid library CCNG1
T15 chain: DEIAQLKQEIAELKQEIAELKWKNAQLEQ

P10A-bS = target: T16, P10A-bS; experiment: two-hybrid library CCNG1
T16 chain: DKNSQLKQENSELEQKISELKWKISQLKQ

Core_NINI-es_KEKK = target: T17, Core_NINI-es_KEKK; experiment: two-hybrid library CCmax; settings: mean of both orientations
T17 chain: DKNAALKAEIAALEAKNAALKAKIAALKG

4H457-bA = target: T18, 4H457-bA; experiment: two-hybrid library CCNG1
T18 chain: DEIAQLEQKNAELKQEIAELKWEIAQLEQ

4H780-bA = target: T19, 4H780-bA; experiment: two-hybrid library CCNG1
T19 chain: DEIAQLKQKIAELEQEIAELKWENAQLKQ

4H1081-bA = target: T20, 4H1081-bA; experiment: two-hybrid library CCNG1; settings: mean of both orientations
T20 chain: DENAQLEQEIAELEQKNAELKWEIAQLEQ

4H4073-bA = target: T21, 4H4073-bA; experiment: two-hybrid library CCNG1
T21 chain: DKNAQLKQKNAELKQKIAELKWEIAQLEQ

4H918-bA = target: T22, 4H918-bA; experiment: two-hybrid library CCNG1
T22 chain: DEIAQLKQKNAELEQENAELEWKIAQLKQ

4H2673-bA = target: T23, 4H2673-bA; experiment: two-hybrid library CCNG1
T23 chain: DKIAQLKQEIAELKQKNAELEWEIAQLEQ

4H112-bA = target: T24, 4H112-bA; experiment: two-hybrid library CCNG1
T24 chain: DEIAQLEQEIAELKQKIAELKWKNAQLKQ

4H855-bA = target: T25, 4H855-bA; experiment: two-hybrid library CCNG1
T25 chain: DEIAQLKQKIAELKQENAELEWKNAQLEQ

4H575-bA = target: T26, 4H575-bA; experiment: two-hybrid library CCNG1
T26 chain: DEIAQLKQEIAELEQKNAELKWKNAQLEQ

4H968-bA = target: T27, 4H968-bA; experiment: two-hybrid library CCNG1
T27 chain: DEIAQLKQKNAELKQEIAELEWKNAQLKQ

4H953-bA = target: T28, 4H953-bA; experiment: two-hybrid library CCNG1
T28 chain: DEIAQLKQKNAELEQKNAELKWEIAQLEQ

4H2702-bA = target: T29, 4H2702-bA; experiment: two-hybrid library CCNG1
T29 chain: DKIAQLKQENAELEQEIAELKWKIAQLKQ

O6 = target: T30, O6; experiment: two-hybrid library CCNG1
T30 chain: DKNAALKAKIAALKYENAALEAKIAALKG

4H346-bA = target: T31, 4H346-bA; experiment: two-hybrid library CCNG1
T31 chain: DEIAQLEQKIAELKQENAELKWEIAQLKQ

4H2627-bA = target: T32, 4H2627-bA; experiment: two-hybrid library CCNG1
T32 chain: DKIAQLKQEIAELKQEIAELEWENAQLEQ

4H683-bA = target: T33, 4H683-bA; experiment: two-hybrid library CCNG1
T33 chain: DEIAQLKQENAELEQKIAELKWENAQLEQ

P8SHb = target: T34, P8SHb; experiment: two-hybrid library CCNG1
T34 chain: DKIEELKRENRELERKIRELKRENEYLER

4H118-bA = target: T35, 4H118-bA; experiment: two-hybrid library CCNG1
T35 chain: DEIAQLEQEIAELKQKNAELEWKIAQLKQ

4H1373-bA = target: T36, 4H1373-bA; experiment: two-hybrid library CCNG1
T36 chain: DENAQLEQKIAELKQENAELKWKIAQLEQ

4H3112-bA = target: T37, 4H3112-bA; experiment: two-hybrid library CCNG1
T37 chain: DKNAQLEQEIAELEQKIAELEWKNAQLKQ

4H2586-bA = target: T38, 4H2586-bA; experiment: two-hybrid library CCNG1
T38 chain: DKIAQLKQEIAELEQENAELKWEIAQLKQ

4H754-bA = target: T39, 4H754-bA; experiment: two-hybrid library CCNG1
T39 chain: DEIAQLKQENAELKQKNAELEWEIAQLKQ

4H3427-bA = target: T40, 4H3427-bA; experiment: two-hybrid library CCNG1
T40 chain: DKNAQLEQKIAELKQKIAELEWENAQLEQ

4H3010-bA = target: T41, 4H3010-bA; experiment: two-hybrid library CCNG1
T41 chain: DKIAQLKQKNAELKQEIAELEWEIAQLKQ

4H1544-bA = target: T42, 4H1544-bA; experiment: two-hybrid library CCNG1
T42 chain: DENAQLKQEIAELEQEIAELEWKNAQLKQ

4H797-bA = target: T43, 4H797-bA; experiment: two-hybrid library CCNG1
T43 chain: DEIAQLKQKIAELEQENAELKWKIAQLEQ

4H1899-bA = target: T44, 4H1899-bA; experiment: two-hybrid library CCNG1
T44 chain: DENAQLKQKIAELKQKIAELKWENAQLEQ

4H1985-bA = target: T45, 4H1985-bA; experiment: two-hybrid library CCNG1
T45 chain: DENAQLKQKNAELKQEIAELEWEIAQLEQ

4H1158-bA = target: T46, 4H1158-bA; experiment: two-hybrid library CCNG1
T46 chain: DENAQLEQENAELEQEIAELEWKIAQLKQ

4H170-bA = target: T47, 4H170-bA; experiment: two-hybrid library CCNG1
T47 chain: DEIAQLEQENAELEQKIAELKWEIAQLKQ

4H1348-bA = target: T48, 4H1348-bA; experiment: two-hybrid library CCNG1
T48 chain: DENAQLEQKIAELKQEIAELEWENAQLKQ

4H1831-bA = target: T49, 4H1831-bA; experiment: two-hybrid library CCNG1
T49 chain: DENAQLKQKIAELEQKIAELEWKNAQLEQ

4H1710-bA = target: T50, 4H1710-bA; experiment: two-hybrid library CCNG1
T50 chain: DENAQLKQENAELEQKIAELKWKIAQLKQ

Core_IIII-es_KEKK = target: T51, Core_IIII-es_KEKK; experiment: two-hybrid library CCmax; settings: mean of both orientations
T51 chain: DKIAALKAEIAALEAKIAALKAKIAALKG

- interaction score (P2bHq): -0.679
- interaction score (4H3926-bA): 1.8
- interaction score (4H348-bA): -2.08
- interaction score (4H3497-bA): -0.885
- interaction score (4H626-bA): -0.331
- interaction score (4H3628-bA): -0.274
- interaction score (4H906-bA): -1.01
- interaction score (4H3298-bA): -0.43
- interaction score (4H3162-bA): 1.11
- interaction score (4H3462-bA): -0.481
- interaction score (4H3613-bA): 0.452
- interaction score (4H3175-bA): -0.314
- interaction score (4H3277-bA): -0.654
- interaction score (4H3631-bA): -1.48
- interaction score (4H591-bA): -1.2
- interaction score (P10A-bS): -0.255
B1: 4H3162-bA (peptide)
chain: DKNAQLEQEIAELKQENAELKWEIAQLKQ

- interaction score (Core_NINI-es_KEKK): 2.15
B2: Core_NINI-es_EKEE (peptide)
chain: DENAALEAKIAALKAENAALEAEIAALEG

- interaction score (4H3926-bA; mean of both orientations): 2.57
- interaction score (4H3497-bA): -1.1
- interaction score (4H457-bA): -0.799
- interaction score (4H780-bA): -0.865
- interaction score (4H1081-bA): -1.09
- interaction score (4H4073-bA): -0.497
- interaction score (4H918-bA): -0.671
- interaction score (4H2673-bA): -0.717
- interaction score (4H112-bA): -0.18
- interaction score (4H855-bA): -0.154
- interaction score (4H575-bA): -1.21
- interaction score (4H968-bA): -1.8
- interaction score (4H953-bA): -1.23
- interaction score (4H626-bA): -0.689
- interaction score (4H3628-bA): -1.07
- interaction score (4H906-bA): -0.875
- interaction score (4H2702-bA): 0.457
- interaction score (4H3298-bA): -0.916
- interaction score (O6): 1.04
- interaction score (4H346-bA): -0.753
- interaction score (4H2627-bA): -0.693
- interaction score (4H3162-bA): -0.581
- interaction score (4H683-bA): -0.217
- interaction score (P8SHb): -1.25
- interaction score (4H118-bA): -0.618
- interaction score (4H3462-bA): -0.859
- interaction score (4H1373-bA): -0.306
- interaction score (4H3112-bA): -0.897
- interaction score (4H2586-bA): -1
- interaction score (4H754-bA): -0.461
- interaction score (4H3427-bA): -0.645
- interaction score (4H3010-bA): -0.178
- interaction score (4H1544-bA): -0.272
- interaction score (4H3613-bA): -0.495
- interaction score (4H797-bA): -1.17
- interaction score (4H3175-bA): -1.47
- interaction score (4H1899-bA): -0.763
- interaction score (4H1985-bA): -0.96
- interaction score (4H3277-bA): -0.575
- interaction score (4H1158-bA): -1.28
- interaction score (4H591-bA): -0.855
- interaction score (4H170-bA): -0.98
- interaction score (4H1348-bA): -0.834
- interaction score (4H1831-bA): -0.839
- interaction score (4H1710-bA): -1.02
B3: 4H1081-bA (peptide)
chain: DENAQLEQEIAELEQKNAELKWEIAQLEQ

- interaction score (Core_IIII-es_KEKK): 1.78
B4: Core_IIII-es_EKEE (peptide)
chain: DEIAALEAKIAALKAEIAALEAEIAALEG
